Columns and labels:
[1] = target: the molecule itself; experiment: SEC + other: SAXS; HPLC-SEC (Agilent Bio SEC-3, 15 °C) directly upstream of the SAXS cell; WT, Q184K and R263Q loaded at 7.4, 10 and 14 mg/ml; mobile phase 100 mM HEPES-Na pH 7.5, 250 mM NaCl, 5% glycerol, 1 mM TCEP; oligomer from Rg and Porod volume of each peak
[2] = target: the molecule itself; experiment: dynamic light scattering; 2 mg/ml in 100 mM potassium phosphate pH 7.5, 50 mM KCl, 0.1 mM EDTA, 10 mM β-mercaptoethanol, 10% glycerol, 20 °C; hydrodynamic diameter

Row | Protein | stoichiometry N [1] | stoichiometry N [2]
1 | wild-type human mitochondrial aspartyl-tRNA synthetase (mt-AspRS) (enzyme, human mitochondrial aspartyl-tRNA synthetase (DARS2), residues 41-645; linker of 5 residues before the C-terminal 6-His tag; Homodimer; also called WT; WT mt-AspRS; not shown: His6, C-terminal, kept) IPEFSSFVVRTNTCGELRSSHLGQEVTLCGWIQYRRQNTFLVLRDFDGLVQVIIPQDESAASVKKILCEAPVESVVQVSGTVISRPAGQENPKMPTGEIEIKVKTAELLNACKKLPFEIKNFVKKTEALRLQYRYLDLRSFQMQYNLRLRSQMVMKMREYLCNLHGFVDIETPTLFKRTPGGAKEFLVPSREPGKFYSLPQSPQQFKQLLMVGGLDRYFQVARCYRDEGSRPDRQPEFTQIDIEMSFVDQTGIQSLIEGLLQYSWPNDKDPVVVPFPTMTFAEVLATYGTDKPDTRFGMKIIDISDVFRNTEIGFLQDALSKPHGTVKAICIPEGAKYLKRKDIESIRNFAADHFNQEILPVFLNANRNWNSPVANFIMESQRLELIRLMETQEEDVVLLTAGEHNKACSLLGKLRLECADLLETRGVVLRDPTLFSFLWVVDFPLFLPKEENPRELESAHHPFTAPHPSDIHLLYTEPKKARSQHYDLVLNGNEIGGGSIRIHNAELQRYILATLLKEDVKMLSHLLQALDYGAPPHGGIALGLDRLICLVTGSPSIRDVIAFPKSFRGHDLMSNTPDSVPPEELKPYHIRVSKPTDSKAERAHVMYLE | 2 | 
2 | human mt-AspRS mutant T136S (enzyme, human mitochondrial aspartyl-tRNA synthetase (DARS2), residues 41-645, LBSL patient mutation 406A>T (T136S); linker of 5 residues before the C-terminal 6-His tag; Mutation found in LBSL patients; not shown: His6, C-terminal, kept) IPEFSSFVVRTNTCGELRSSHLGQEVTLCGWIQYRRQNTFLVLRDFDGLVQVIIPQDESAASVKKILCEAPVESVVQVSGTVISRPAGQENPKMPSGEIEIKVKTAELLNACKKLPFEIKNFVKKTEALRLQYRYLDLRSFQMQYNLRLRSQMVMKMREYLCNLHGFVDIETPTLFKRTPGGAKEFLVPSREPGKFYSLPQSPQQFKQLLMVGGLDRYFQVARCYRDEGSRPDRQPEFTQIDIEMSFVDQTGIQSLIEGLLQYSWPNDKDPVVVPFPTMTFAEVLATYGTDKPDTRFGMKIIDISDVFRNTEIGFLQDALSKPHGTVKAICIPEGAKYLKRKDIESIRNFAADHFNQEILPVFLNANRNWNSPVANFIMESQRLELIRLMETQEEDVVLLTAGEHNKACSLLGKLRLECADLLETRGVVLRDPTLFSFLWVVDFPLFLPKEENPRELESAHHPFTAPHPSDIHLLYTEPKKARSQHYDLVLNGNEIGGGSIRIHNAELQRYILATLLKEDVKMLSHLLQALDYGAPPHGGIALGLDRLICLVTGSPSIRDVIAFPKSFRGHDLMSNTPDSVPPEELKPYHIRVSKPTDSKAERAHVMYLE |  | 2
3 | human mt-AspRS mutant L613F (enzyme, human mitochondrial aspartyl-tRNA synthetase (DARS2), residues 41-645, LBSL patient mutation 1837C>T (L613F); linker of 5 residues before the C-terminal 6-His tag; Mutation found in LBSL patients; not shown: His6, C-terminal, kept) IPEFSSFVVRTNTCGELRSSHLGQEVTLCGWIQYRRQNTFLVLRDFDGLVQVIIPQDESAASVKKILCEAPVESVVQVSGTVISRPAGQENPKMPTGEIEIKVKTAELLNACKKLPFEIKNFVKKTEALRLQYRYLDLRSFQMQYNLRLRSQMVMKMREYLCNLHGFVDIETPTLFKRTPGGAKEFLVPSREPGKFYSLPQSPQQFKQLLMVGGLDRYFQVARCYRDEGSRPDRQPEFTQIDIEMSFVDQTGIQSLIEGLLQYSWPNDKDPVVVPFPTMTFAEVLATYGTDKPDTRFGMKIIDISDVFRNTEIGFLQDALSKPHGTVKAICIPEGAKYLKRKDIESIRNFAADHFNQEILPVFLNANRNWNSPVANFIMESQRLELIRLMETQEEDVVLLTAGEHNKACSLLGKLRLECADLLETRGVVLRDPTLFSFLWVVDFPLFLPKEENPRELESAHHPFTAPHPSDIHLLYTEPKKARSQHYDLVLNGNEIGGGSIRIHNAELQRYILATLLKEDVKMLSHLLQALDYGAPPHGGIALGLDRLICLVTGSPSIRDVIAFPKSFRGHDFMSNTPDSVPPEELKPYHIRVSKPTDSKAERAHVMYLE |  | 2
4 | human mt-AspRS mutant L626Q (enzyme, human mitochondrial aspartyl-tRNA synthetase (DARS2), residues 41-645, LBSL patient mutation 1876T>A (printed as 626Q in the methods, L626Q elsewhere); linker of 5 residues before the C-terminal 6-His tag; Mutation found in LBSL patients; not shown: His6, C-terminal, kept) IPEFSSFVVRTNTCGELRSSHLGQEVTLCGWIQYRRQNTFLVLRDFDGLVQVIIPQDESAASVKKILCEAPVESVVQVSGTVISRPAGQENPKMPTGEIEIKVKTAELLNACKKLPFEIKNFVKKTEALRLQYRYLDLRSFQMQYNLRLRSQMVMKMREYLCNLHGFVDIETPTLFKRTPGGAKEFLVPSREPGKFYSLPQSPQQFKQLLMVGGLDRYFQVARCYRDEGSRPDRQPEFTQIDIEMSFVDQTGIQSLIEGLLQYSWPNDKDPVVVPFPTMTFAEVLATYGTDKPDTRFGMKIIDISDVFRNTEIGFLQDALSKPHGTVKAICIPEGAKYLKRKDIESIRNFAADHFNQEILPVFLNANRNWNSPVANFIMESQRLELIRLMETQEEDVVLLTAGEHNKACSLLGKLRLECADLLETRGVVLRDPTLFSFLWVVDFPLFLPKEENPRELESAHHPFTAPHPSDIHLLYTEPKKARSQHYDLVLNGNEIGGGSIRIHNAELQRYILATLLKEDVKMLSHLLQALDYGAPPHGGIALGLDRLICLVTGSPSIRDVIAFPKSFRGHDLMSNTPDSVPPEEQKPYHIRVSKPTDSKAERAHVMYLE |  | 2
5 | human mt-AspRS mutant R58G (enzyme, human mitochondrial aspartyl-tRNA synthetase (DARS2), residues 41-645, LBSL patient mutation 172C>G (R58G); linker of 5 residues before the C-terminal 6-His tag; Mutation found in LBSL patients; not shown: His6, C-terminal, kept) IPEFSSFVVRTNTCGELGSSHLGQEVTLCGWIQYRRQNTFLVLRDFDGLVQVIIPQDESAASVKKILCEAPVESVVQVSGTVISRPAGQENPKMPTGEIEIKVKTAELLNACKKLPFEIKNFVKKTEALRLQYRYLDLRSFQMQYNLRLRSQMVMKMREYLCNLHGFVDIETPTLFKRTPGGAKEFLVPSREPGKFYSLPQSPQQFKQLLMVGGLDRYFQVARCYRDEGSRPDRQPEFTQIDIEMSFVDQTGIQSLIEGLLQYSWPNDKDPVVVPFPTMTFAEVLATYGTDKPDTRFGMKIIDISDVFRNTEIGFLQDALSKPHGTVKAICIPEGAKYLKRKDIESIRNFAADHFNQEILPVFLNANRNWNSPVANFIMESQRLELIRLMETQEEDVVLLTAGEHNKACSLLGKLRLECADLLETRGVVLRDPTLFSFLWVVDFPLFLPKEENPRELESAHHPFTAPHPSDIHLLYTEPKKARSQHYDLVLNGNEIGGGSIRIHNAELQRYILATLLKEDVKMLSHLLQALDYGAPPHGGIALGLDRLICLVTGSPSIRDVIAFPKSFRGHDLMSNTPDSVPPEELKPYHIRVSKPTDSKAERAHVMYLE |  | 2

— article PMC4664897, “Neurodegenerative disease-associated mutants of a human mitochondrial aminoacyl-tRNA synthetase present individual molecular signatures” (Scientific Reports, 2015)
